Assay results as given in patent publication US5851983A, “Elastase inhibitory polypeptide and process for production thereof by recombinant gene technology” (Teijin Limited, priority 1987, dated 1998).

Columns and labels:
Format in all cases: biochemical
Porcine FXa = assay: Assay for Fxa inhibitory activity (Example 36); conditions: final concentration up to ×10^-5 M; enzyme 1.0 × 10^-8 M
Description: I. Porcine FXa (Daichi Seiyaku)
(§1) Thrombin and FXa: 50 mM Tris-HCl, 7.5 mM EDTA-2Na, 175 mM NaCl (pH 8.4) […]
(§2) Substrate solution: for the enzymes F, G, H and I, the following substrate f, g, h or i, respectively, was dissolved to a final concentration shown in Table 24.
i. Ratio 1:1 mixture of the following compounds: [drawing 6]
(§3) To wells of an ELISA 96-well microtiter plate, were added a solution of (Arg^58 -Ala^107) SLPI obtained in Example 34 and then the enzyme solution, and the mixture was incubated at 37° C. for 10 minutes. Next, the substrate solution was added to develop the color, whose absorption was then measured at 405 nm. As a control, SLPI was used.

[1] = target: T1, polymorphonuclear leucocyte elastase from human sputum (Homo sapiens, UniProt P08246); assay: Assay for elastase inhibitory activity (Example 35); conditions: enzyme 2 × 10^-8 M, substrate 3.0 × 10^-4 M
T1 construct: Polymorphonuclear leukocyte elastase from human sputum (EPC Co; Funakoshi Yakuhin); purchased EPC Co. (via Funakoshi Yakuhin); host or cells: human sputum
T1 sequence (P08246 30-267): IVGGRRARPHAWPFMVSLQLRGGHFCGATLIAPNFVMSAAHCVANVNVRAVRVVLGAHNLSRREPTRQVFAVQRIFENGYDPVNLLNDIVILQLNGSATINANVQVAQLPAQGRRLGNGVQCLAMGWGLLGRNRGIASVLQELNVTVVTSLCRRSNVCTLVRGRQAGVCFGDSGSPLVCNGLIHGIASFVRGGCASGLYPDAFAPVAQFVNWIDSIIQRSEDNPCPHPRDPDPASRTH
Description: (§4) Assay method used was as follows.
(§5) Buffer: 0.1M (2-hydroxyethyl)piperazine-N'-2-ethansulfonic acid (HEPES), 0.5M NaCl, pH 7.5.
(§6) Enzyme concentration: the following enzyme was dissolved in the above-mentioned buffer to a concentration 9 times that shown in Table 22.
(§7) A. Polymorphonuclear leucocyte elastase from human sputum (EPC Co., Funakoshi Yakuhin)
Substrate solution: for the enzymes A, B, C, D and E, the following substrate a, b, c, d or e, respectively, was dissolved in a solution of DMSO +the above-mentioned buffer (1:9) (note, final concentration of DMSO was 10% in the buffer) to a concentration of 9 times that shown in Table 22.
(§8) a. MeO-Suc-Ala-Ala-Pro-Val-pNA (Bachem) […]
(§9) To wells of an ELISA 96-well microtiter plate, were added 120 μl of the buffer and the 20 μl of a sample solution of (Arg^58 -Ala^107) SLPI obtained in Example 34, followed by 20 μl of the enzyme solution. The mixture was reacted at 37° C. for 10 minutes. Next, 20 μl of the substrate was added, and developed at 37° C. The developed color was measured by absorption at 405 nm.
(§10) As a control the same procedure was carried out using SLPI.

Bovine spleen trypsin = target: T2, Bovine spleen trypsin (Bos taurus, UniProt P00760); assay: Assay for trypsin inhibitory activity (Example 35); conditions: enzyme 2 × 10^-7 M, substrate 1.0 × 10^-3 M
T2 construct: purchased Sigma
T2 sequence (P00760 24-246): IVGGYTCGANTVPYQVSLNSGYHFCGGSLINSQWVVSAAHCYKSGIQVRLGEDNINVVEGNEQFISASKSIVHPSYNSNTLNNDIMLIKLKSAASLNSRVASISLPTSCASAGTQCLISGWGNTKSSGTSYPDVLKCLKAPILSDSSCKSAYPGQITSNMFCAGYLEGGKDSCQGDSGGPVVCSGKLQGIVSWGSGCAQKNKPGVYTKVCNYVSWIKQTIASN
Description: as §4, §5, §6
B. Bovine spleen trypsin (Sigma)
Substrate solution: for the enzymes A, B, C, D and E, the following substrate a, b, c, d or e, respectively, was dissolved in a solution of DMSO +the above-mentioned buffer (1:9) (note, final concentration of DMSO was 10% in the buffer) to a concentration of 9 times that shown in Table 22. […]
as §9, §10

Human plasma thrombin = target: T3, Human plasma thrombin (Homo sapiens, UniProt P00734); assay: Assay for thrombin inhibitory activity (Example 36); conditions: final concentration up to ×10^-5 M; enzyme 3 × 10^-9 M
T3 construct: (5) Human plasma thrombin (Kabi, Daiichi Kagaku Yakuhin); purchased Kabi (via Daiichi Kagaku Yakuhin); host or cells: human plasma
Description: F. Human plasma thrombin (Sigma)
as §1, §2
f. H.D-Phe-Pip-Arg-pNA (Kabi Vitrum)
as §3

Human plasma plasmin = target: T4, Human plasma plasmin (Homo sapiens, UniProt P00747); assay: Assay for plasmin inhibitory activity (Example 36); conditions: final concentration up to ×10^-5 M; enzyme 1.0 × 10^-7 M
T4 construct: (6) Human plasma plasmin (Kabi, Daiichi Kagaku Yakuhin); purchased Kabi (via Daiichi Kagaku Yakuhin); host or cells: human plasma
Description: G. Human plasma plasmin (sigma)
Plasmin: 50 mM Tris-HCl, 100 mM NaCl (pH 7.4) […]
as §2
g. H.D-Val-Leu-Lys-pNA (Kabi Vitrum)
as §3

Human plasma kallikrein = target: T5, Human plasma kallikrein (Homo sapiens, UniProt P03952); assay: Assay for kallikrein inhibitory activity (Example 36); conditions: final concentration up to ×10^-5 M; enzyme 1.0 × 10^-7 M
T5 construct: (7) Human plasma kallikrein (Kabi, Daiichi Kagaku Yakuhin); purchased Kabi (via Daiichi Kagaku Yakuhin); host or cells: human plasma
Description: H. Human plasma kallikrein (Protogene, Funakoshi Yakuhin)
Kallikrein: 50 mM Tris-HCl, 361 mM NaCl, 0.01 mg/ml Polybrene (pH 7.8) […]
as §2
h. H.D-Pro-Phe-Arg-pNA (Kabi Vitram)
as §3

[2] = tested on: polymorphonuclear leucocyte elastase from human sputum; assay: Inhibitory constant (Ki) assay, elastase (Example 37); conditions: from Table 26
Description: Method for assay is as follow.
Buffer: 0.1M N-(2-hydroxyethyl)piperazine-N'-2-ethanesulfonic acid (HEPES), 1.0M NaCl, 0.1% polyethylene glycol (pH 7.5)
Enzyme solution: the following enzyme was dissolved in the above-mentioned buffer to a concentration 9 times that shown in Table 25.
as §7
Substrate solution: for the enzymes A and B, the following substrate a or b was dissolved in a solution of DMSO+the above-mentioned buffer (1:9), or in DMSO, respectively.
as §8
To wells of an ELISA 96-well microtiter plate, were added 120 μl of the buffer, 20 μl of a sample solution of ([…] -Ala^107) SLPI obtained in Example 25, and 20 μl of the enzyme solution in this order, an the mixture was reacted at 37° C. for 1 hour. Next, 20 μl of the substrate was added to develop at 25° C. Absorption of the developed color was measured at 405 nm. As a control, SLPI was used.
On the basis of the result thus obtained, an inhibitory constant (Ki) of (Arg^58 -Ala^107) SLPI of the present invention was calculated according to the method of Henderson (Henderson, P. J. F. (1972), Biochem. J. 127, 321-333).

T5 sequence (P03952 391-638 limits assumed): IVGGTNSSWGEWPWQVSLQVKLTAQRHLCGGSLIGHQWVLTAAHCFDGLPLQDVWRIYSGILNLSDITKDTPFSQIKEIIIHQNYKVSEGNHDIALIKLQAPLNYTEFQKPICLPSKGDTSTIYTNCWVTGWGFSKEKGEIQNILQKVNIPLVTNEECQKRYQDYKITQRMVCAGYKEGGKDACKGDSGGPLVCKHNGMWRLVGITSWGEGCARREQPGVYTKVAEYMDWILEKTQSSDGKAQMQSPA
T5 sequence (P03952 20-390 partner limits assumed): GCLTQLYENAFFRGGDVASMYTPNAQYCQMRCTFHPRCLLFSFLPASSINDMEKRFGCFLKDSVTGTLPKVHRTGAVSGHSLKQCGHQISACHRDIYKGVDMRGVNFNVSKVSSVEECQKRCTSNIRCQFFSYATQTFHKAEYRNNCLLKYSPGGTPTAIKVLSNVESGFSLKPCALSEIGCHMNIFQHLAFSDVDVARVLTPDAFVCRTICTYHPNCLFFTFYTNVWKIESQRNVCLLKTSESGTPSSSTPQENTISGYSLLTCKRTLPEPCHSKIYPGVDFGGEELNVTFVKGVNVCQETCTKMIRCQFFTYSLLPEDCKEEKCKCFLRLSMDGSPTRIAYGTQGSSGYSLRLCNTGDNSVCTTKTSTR
T4 sequence (P00747 581-810 limits assumed): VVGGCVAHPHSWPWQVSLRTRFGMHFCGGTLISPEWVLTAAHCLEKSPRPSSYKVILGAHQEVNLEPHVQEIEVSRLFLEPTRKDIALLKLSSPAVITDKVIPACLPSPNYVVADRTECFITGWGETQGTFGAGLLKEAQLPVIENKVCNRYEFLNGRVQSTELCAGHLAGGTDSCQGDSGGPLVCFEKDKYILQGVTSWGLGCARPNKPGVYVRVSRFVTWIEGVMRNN
T4 sequence (P00747 97-580 partner limits assumed): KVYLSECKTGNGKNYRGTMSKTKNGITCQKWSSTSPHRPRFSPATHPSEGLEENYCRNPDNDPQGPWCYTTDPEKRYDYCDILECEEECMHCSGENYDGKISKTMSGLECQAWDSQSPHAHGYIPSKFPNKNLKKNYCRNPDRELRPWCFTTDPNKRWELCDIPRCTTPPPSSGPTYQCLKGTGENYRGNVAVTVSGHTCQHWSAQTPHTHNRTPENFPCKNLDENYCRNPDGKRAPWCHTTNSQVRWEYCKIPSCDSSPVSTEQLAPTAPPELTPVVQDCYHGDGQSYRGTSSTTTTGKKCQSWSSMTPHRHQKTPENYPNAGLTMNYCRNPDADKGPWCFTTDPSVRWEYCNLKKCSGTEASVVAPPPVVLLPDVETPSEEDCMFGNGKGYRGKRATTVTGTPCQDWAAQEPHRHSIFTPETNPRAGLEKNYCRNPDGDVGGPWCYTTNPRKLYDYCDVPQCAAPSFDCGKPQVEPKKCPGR

(Arg^58 -Ala^107) SLPI: polypeptide having an amino acid sequence starting with the 58th Arg and ending at the 107th Ala of SLPI (RRKPGKCPVTYGQCLMLNPPNFCEMDGQCKRDLKCCMGMCGKSCVSPVKA)
inhibitory activity to FXa (Porcine FXa): did not exhibit inhibitory activity
IC50 [1]: 12 nM
IC50 (Bovine spleen trypsin): 2000 nM
inhibitory activity to thrombin (Human plasma thrombin): did not exhibit inhibitory activity
inhibitory activity to plasmin (Human plasma plasmin): did not exhibit inhibitory activity
inhibitory activity to kallikrein (Human plasma kallikrein): did not exhibit inhibitory activity
relative ratio of inhibitory activity on trypsin to that on elastase (Ki(T)/Ki(E)) [2]: about 12,000
